Source: IntAct's records for PubMed 24980795

B1: Spindle-defective protein 2 (Caenorhabditis elegans), P91870 (parent)
chain: MEDDAPMNLCNEQFEEIEDSPIDDNDNESFYNADGDVELEEEEVHETPKNFKNGGRFKTNMTNPKVNDLTTIEEKNEDLRSAASSRSASRPASVMSDKSFSSQFEFQSGGENAIEEYTNQVFADENKADLLFPETSKFMNGASPPKDKHHSWEPSIHHYDKQPPPDIQTNSPVFGNLNHRKNKLIPQARAKPGANDNEIVERDNDENVPTTSDKSAFITSPMNSTNHDEKTSTPKRPTNRKIGQYQGPNFDLSSIYVGSPQHQNTSISTGQQMPTSSYSHAHSETMMTNQTINESMVRRVLNGNNKNQDLFAALEEARKRRAAQPSKPDFRINTTRTRVPIKPTSARHSGNVVSSTSNDNTTAASSKDLTTSRKAMETFRQNASMADATNSNTASMTSILSTISTARTDISRSSRNHGGGFSNTSVSTVIPANNGNVSLSHGRDGRDSVSSVRTMSRASSTSTVYAGSTFSGVSKPLRIHAKRVAFGCVAVGETLRVEVEVENISDRQCLVRASTDSTTPVYQILDNKLTMVDPKKSIKFQVSFSPSSVGRYQVIMSIEVPAQNFIHKIPMWGNGGIAKFVPTSPDLQQTINQSEYAMCTSCAKRISFKISNSAGTRDGFAMIKVFDSAMRQLPDGCVAFFPAPGFIVKKKSDKRVDIRIDSSYIDLHDENNFRTSSSLSTASTTSSFQRRILPGAKFFVHVVWGEETMRTRLRLLEVRTGQHQLIDGHDFTSFQFSDEEVLRAVPVGFPAIKPEDRDLFAASYRSFFINFFTSTTEFRAATSRKKKEICSNDDSTLLETTAFRNQTFVNDVTIVPNTRFSNRK
partner: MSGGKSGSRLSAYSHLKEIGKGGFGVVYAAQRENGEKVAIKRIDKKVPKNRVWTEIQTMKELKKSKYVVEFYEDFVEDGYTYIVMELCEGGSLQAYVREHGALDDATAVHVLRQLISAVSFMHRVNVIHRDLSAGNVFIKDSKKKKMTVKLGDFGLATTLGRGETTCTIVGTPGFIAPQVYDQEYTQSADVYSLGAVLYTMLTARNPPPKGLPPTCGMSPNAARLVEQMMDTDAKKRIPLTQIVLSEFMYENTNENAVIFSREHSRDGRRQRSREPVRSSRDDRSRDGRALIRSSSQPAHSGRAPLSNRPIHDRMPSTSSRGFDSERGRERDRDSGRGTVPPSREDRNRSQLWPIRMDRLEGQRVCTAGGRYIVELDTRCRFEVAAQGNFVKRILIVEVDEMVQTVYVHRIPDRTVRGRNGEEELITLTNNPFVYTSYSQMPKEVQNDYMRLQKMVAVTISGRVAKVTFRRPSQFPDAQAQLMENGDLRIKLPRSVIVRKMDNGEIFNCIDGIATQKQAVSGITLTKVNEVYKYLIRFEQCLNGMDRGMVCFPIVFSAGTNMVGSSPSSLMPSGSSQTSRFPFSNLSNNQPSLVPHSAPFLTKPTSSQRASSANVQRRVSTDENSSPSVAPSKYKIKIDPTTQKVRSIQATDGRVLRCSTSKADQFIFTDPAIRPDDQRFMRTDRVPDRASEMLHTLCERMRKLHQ
B2: Probable serine/threonine-protein kinase zyg-1 (Caenorhabditis elegans), Q9GT24 (parent)
chain: B1 partner
partner: B1 chain
B3: Serine/threonine-protein kinase PLK4 (Mus musculus), Q64702-1 (parent)
chain: MAACIGERIEDFKVGNLLGKGSFAGVYRAESIHTGLEVAIKMIDKKAMYKAGMVQRVQNEVKIHCQLKHPSVLELYNYFEDNNYVYLVLEMCHNGEMNRYLKNRMKPFSEREARHFMHQIITGMLYLHSHGILHRDLTLSNILLTRNMNIKIADFGLATQLNMPHEKHYTLCGTPNYISPEIATRSAHGLESDIWSLGCMFYTLLIGRPPFDTDTVKNTLNKVVLADYEMPAFLSREAQDLIHQLLRRNPADRLSLSSVLDHPFMSRNPSPKSKDVGTVEDSMDSGHATLSTTITASSGTSLSGSLLDRRLLVGQPLPNKITVFQKNKNSSDFSSGDGSNFCTQWGNPEQEANSRGRGRVIEDAEERPHSRYLRRAHSSDRASPSNQSRAKTYSVERCHSVEMLSKPRRSLDENQHSSNHHCLGKTPFPFADQTPQMEMVQQWFGNLQMNAHLGETNEHHTVSPNRDFQDYPDLQDTLRNAWTDTRASKNADTSANVHAVKQLSAMKYMSAHHHKPEVMPQEPGLHPHSEQSKNRSMESTLGYQKPTLRSITSPLIAHRLKPIRQKTKKAVVSILDSEEVCVELLRECASEGYVKEVLQISSDGTMITVYYPNDGRGFPLADRPPLPTDNISRYSFDNLPEKYWRKYQYASRFIQLVRSKTPKITYFTRYAKCILMENSPGADFEVWFYDGAKIHKTENLIHIIEKTGISYNLKNENEVTSLKEEVKVYMDHANEGHRICLSLESVISEEEKRSRGSSFFPIIVGRKPGNTSSPKALSAPPVDPSCCKGEQASASRLSVNSAAFPTQSPGLSPSTVTVEGLGHTATATGTGVSSSLPKSAQLLKSVFVKNVGWATQLTSGAVWVQFNDGSQLVVQAGVSSISYTSPDGQTTRYGENEKLPEYIKQKLQCLSSILLMFSNPTPNFQ

Variants of: B1
Details: with zyg1_caeel zyg-1, Q9GT24

| Variant | effect of a mutation on the interaction |
| --- | --- |
| E12K;E15K;E16K;E18K;D19K | disrupting interaction strength |
| E38K;E40K;E41K;E42K;E43K | disrupting interaction strength |

Variants of: B1
Details: with zyg1_caeel zyg-1, Q9GT24
Remark: another data set of the same source

| Variant | effect of a mutation on the interaction |
| --- | --- |
| E38K;E40K;E41K;E42K;E43K | decreasing interaction strength |
| D26K;E28K;D34K;D36K | decreasing interaction strength |

Variants of: B2
Details: with spd2_caeel spd-2, P91870

| Variant | effect of a mutation on the interaction |
| --- | --- |
| R471E | decreasing interaction strength |
| R489E;K491E | disrupting interaction strength |
| K454E | decreasing interaction strength |
| R470E | decreasing interaction strength |
| K500E | disrupting interaction strength |
| R463E | disrupting interaction strength |
| R470E;R471E | disrupting interaction strength |

Variants of: B3
Details: with Cep192, E9Q4Y4
Cep192, E9Q4Y4, sequence (E9Q4Y4 entry or part of it): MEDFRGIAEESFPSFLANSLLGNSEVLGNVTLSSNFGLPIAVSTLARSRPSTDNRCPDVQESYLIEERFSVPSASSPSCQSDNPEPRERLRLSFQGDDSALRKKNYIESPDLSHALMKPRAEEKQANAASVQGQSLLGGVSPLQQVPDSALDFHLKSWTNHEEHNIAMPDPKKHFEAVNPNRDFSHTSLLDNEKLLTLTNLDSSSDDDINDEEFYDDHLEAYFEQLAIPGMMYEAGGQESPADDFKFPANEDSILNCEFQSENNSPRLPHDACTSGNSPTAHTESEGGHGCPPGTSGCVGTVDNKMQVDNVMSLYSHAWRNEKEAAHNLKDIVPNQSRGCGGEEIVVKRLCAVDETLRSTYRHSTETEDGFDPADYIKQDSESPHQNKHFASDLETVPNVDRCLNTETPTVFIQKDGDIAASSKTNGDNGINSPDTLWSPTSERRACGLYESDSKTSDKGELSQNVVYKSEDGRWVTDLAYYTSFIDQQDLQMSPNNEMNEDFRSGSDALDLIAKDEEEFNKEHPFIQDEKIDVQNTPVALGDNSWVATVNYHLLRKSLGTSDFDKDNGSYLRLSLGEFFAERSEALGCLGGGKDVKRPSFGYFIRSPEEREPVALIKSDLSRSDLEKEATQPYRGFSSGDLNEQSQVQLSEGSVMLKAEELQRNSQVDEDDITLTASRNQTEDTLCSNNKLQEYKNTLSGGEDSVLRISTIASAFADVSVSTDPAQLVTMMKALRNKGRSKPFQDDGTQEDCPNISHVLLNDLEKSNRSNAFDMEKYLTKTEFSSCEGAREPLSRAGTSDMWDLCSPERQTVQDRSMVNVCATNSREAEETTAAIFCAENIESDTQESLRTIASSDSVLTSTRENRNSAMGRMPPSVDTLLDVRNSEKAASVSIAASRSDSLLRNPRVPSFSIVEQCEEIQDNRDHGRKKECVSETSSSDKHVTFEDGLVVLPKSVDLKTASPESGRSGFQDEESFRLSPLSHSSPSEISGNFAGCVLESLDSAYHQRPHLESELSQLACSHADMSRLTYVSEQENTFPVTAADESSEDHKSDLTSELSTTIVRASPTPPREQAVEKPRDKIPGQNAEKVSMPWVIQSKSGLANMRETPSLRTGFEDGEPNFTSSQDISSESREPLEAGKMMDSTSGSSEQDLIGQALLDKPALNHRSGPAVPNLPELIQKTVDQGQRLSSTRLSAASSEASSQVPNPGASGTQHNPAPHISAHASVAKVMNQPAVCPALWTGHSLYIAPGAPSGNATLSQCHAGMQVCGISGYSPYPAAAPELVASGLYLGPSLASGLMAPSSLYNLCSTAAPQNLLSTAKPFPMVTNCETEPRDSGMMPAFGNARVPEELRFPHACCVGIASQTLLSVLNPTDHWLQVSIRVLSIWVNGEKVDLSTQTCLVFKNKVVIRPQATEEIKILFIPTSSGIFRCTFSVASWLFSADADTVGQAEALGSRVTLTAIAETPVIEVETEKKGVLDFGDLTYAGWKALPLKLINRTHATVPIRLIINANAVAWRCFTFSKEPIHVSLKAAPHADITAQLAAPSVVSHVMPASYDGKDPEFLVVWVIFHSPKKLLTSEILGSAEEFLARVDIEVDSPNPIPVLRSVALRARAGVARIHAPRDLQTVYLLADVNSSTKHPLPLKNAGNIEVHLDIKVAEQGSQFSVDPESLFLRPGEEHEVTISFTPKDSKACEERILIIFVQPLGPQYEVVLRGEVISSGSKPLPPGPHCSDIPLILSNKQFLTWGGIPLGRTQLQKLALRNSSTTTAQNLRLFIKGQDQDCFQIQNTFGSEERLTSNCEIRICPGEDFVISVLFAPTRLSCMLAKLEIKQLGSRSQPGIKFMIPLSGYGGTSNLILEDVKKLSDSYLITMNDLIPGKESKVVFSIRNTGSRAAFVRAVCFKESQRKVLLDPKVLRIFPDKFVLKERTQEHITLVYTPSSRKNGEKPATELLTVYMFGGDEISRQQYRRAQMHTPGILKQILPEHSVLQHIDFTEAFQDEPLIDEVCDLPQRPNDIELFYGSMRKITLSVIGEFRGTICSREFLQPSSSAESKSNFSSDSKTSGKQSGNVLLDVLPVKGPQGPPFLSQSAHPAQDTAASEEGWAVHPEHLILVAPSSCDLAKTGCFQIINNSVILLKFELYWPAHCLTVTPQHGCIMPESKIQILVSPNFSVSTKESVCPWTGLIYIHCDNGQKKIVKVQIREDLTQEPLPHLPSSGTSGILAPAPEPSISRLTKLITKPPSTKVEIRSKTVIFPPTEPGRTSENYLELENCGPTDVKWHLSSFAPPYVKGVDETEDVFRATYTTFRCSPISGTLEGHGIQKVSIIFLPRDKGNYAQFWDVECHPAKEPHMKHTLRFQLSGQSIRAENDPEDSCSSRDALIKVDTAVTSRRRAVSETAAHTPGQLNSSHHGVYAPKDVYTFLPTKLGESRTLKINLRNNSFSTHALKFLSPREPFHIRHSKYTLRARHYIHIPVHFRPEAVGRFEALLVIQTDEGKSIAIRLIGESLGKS

| Variant | effect of a mutation on the interaction |
| --- | --- |
| K693E | decreasing interaction strength |
| K660E | increasing interaction strength |
| R564E;K566E | increasing interaction strength |
| K672E | decreasing interaction strength |
| R766E;K767E | decreasing interaction strength |

Variants of: B3
Details: with ce152_mouse Cep152, A2AUM9
ce152_mouse Cep152, A2AUM9, sequence (A2AUM9 whole entry): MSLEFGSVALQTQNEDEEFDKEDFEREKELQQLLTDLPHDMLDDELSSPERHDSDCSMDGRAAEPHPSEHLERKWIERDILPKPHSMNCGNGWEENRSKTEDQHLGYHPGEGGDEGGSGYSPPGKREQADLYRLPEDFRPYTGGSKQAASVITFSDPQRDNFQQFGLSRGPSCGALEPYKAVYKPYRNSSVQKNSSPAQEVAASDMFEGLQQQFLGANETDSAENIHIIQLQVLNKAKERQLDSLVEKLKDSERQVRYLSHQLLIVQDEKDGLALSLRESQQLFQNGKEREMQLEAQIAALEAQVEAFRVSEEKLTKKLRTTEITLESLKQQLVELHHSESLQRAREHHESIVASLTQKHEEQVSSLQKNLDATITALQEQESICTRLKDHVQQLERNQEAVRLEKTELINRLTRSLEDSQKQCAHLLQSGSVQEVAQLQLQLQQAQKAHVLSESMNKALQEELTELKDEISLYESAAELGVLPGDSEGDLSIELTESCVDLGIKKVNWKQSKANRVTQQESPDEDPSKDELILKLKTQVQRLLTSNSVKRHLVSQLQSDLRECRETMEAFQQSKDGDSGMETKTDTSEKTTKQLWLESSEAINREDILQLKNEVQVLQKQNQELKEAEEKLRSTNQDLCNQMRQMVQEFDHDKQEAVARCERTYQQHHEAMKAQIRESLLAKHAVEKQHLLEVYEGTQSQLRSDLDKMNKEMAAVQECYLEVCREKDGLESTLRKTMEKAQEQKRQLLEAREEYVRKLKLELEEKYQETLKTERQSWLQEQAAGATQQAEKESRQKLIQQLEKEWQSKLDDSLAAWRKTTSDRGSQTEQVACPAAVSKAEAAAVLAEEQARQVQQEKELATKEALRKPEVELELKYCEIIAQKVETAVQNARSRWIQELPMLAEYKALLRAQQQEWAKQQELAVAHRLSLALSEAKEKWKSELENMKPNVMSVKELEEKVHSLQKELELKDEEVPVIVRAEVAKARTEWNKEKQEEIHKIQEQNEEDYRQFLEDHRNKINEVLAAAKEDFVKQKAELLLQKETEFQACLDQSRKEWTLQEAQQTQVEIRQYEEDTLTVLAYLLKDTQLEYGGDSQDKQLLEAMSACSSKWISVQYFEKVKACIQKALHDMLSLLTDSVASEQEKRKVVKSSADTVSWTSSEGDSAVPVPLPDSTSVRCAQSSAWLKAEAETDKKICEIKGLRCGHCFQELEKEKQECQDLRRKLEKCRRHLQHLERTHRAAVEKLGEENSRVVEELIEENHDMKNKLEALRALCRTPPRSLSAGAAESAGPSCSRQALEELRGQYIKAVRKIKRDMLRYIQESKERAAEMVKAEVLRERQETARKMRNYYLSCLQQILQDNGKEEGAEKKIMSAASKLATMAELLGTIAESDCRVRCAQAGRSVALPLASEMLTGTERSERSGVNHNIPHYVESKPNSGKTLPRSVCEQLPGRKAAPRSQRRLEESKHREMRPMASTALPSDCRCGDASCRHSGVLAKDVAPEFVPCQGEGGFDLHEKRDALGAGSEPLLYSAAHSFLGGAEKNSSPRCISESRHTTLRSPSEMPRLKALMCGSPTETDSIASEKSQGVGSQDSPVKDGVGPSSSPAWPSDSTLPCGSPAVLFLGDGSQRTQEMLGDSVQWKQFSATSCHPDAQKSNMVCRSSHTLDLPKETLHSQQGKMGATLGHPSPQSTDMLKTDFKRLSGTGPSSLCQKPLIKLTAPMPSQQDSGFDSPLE

| Variant | effect of a mutation on the interaction |
| --- | --- |
| K693E | decreasing interaction strength |
| K660E | decreasing interaction strength |
| K672E | decreasing interaction strength |
| R766E;K767E | decreasing interaction strength |
| K568E;K569E | increasing interaction strength |
| R652E | decreasing interaction strength |
